Test results reported in a protein production outcome set (Wang et al. 2014).

Test: label from the status in PepcDB records
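Further: failed if final PepcDB status was selected cloned or expressed and not failed if soluble or beyond.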

| Sequence | protein production |
| --- | --- |
| FFSNAEVAERLAYPQLIEALRIGLAKPCSAPLRNCHALPAQASLLQMPVWQAGAGIGVKLVTVFPGNGARGLPAVAAVFALFDGEDGRPLALLEASELTARRTACSSALAADYLARDDARRLLVVGCGTLAAHMVRAHACVRDYRHIDIWGRDPAKAAALAARLREEGYPARAADGLRAAVEAADCVSCVTTSREALVRGAWLKPGVHLDLVGAFLPSMRETDVLAVARARVVVDTRAGALEEAGDLLQAIAEGAIGREAISTELRDLLSGAGRRGDPGEITLFKSVGYALEDLVAARRVV | failed |
| FKAVTYVADPVDVTYQSLNVSVPVEIDGKAVDASHAPIVFSNAVGGYMPSSTAGNTGIGQGVNAKLSLASGFVVVDPGARGRTLVDTAGVYYGVAPAAIVDLKAAIRYLRHNKGRVPGDTDRIVATGVSAGGALTSLLGASGDSDRYAPYLQELGAADASDAVFAAAPYCPITDLEHADMAYEWNWGTNPLPTGAQVDQTLSKELRSGFAEYQASLNLRGKNGFGRITARNYDAYMVKTHLEPSATRYLGALPDADRAAYLTANPWITWSGGRASFGWGDFLTHVGARKKNVPSFDTFTLAAPENNLFGVATTKARHFTQWSLRKATGDDGARLDADLPEKIDLMNPMYFIEHQNPGRSRHWFIRVGTKDSDTSLTVVGNLTAGLENLGDDVDTYMYWDGGHGANQDAPDFITWIRSVSG | failed |
| FLSTRDNVDELRKIENKSSFVSADNMPEYVKGAFISMEDERFYNHHGFDLKGTTRALFSTISDRDVQGGSTITQQVVKNYFYDNDRSFTRKVKELFVAHRVEKQYNKNEILSFYLNNIYFGDNQYTLEGAANHYFGTTVNKNSTTMSHITVLQSAILASKVNAPSVYNINN | failed |
| FYTPKAVVQLVVELIDPRPGHSVYDPTCGSGGMLVESAHHVSGLPDGTLMGKPNVLLYGQEKNLGTWAIAKLNLYLHNMHASIERGDTLVEPKHLDGDYLKTFDRVIANPPFSAKSWWTPLELSNENEQENGKKVKAPNYKQVSDPYGRLVYGVPPRGYADLAFAQHMLASLKADGRMGVILPHGVLFRSGEEGKIREGLLFGTGAASGNQPGDVIEAIVGLPSALFYNTGIPACVLILNKQKPSALKDKVIIIDGSRDYLEGKAQNSLHAEDILRIVSTH | failed |
| FYTPSFITSYMCKESITPIVLDKFNAIYQWDCENLKALRGEIDRNFSNEKAKEYLNTLLTLRICDPAVGSGHFLVSALNEMVRVAYELGLIASLYRYDLKLENDEIIIHHTPTGEIFNYIKPDSENDPHHHIQKELFNLKKSIIENCLFGVDINPNSCEITKLRLWIELLKYSYYIFEKGKNTNALETLPNIDINIKCANSLISRFALKDKALLKSEKNKNLEYSIAEYKELVKIYKDPKILETLTHPIKDSNAVRKYAKERLYQELKQNPNKDFKKALNDRIEKIKKAFKLTLNPPPKELKFKKFLKEHLELYGKSILEEANYNGLELEALALEKQMANLFFDYRPYPKLDKSDKVVGLEHFNRYVLTSYKDLQDENERYANALEWRFEFPEVLDDEGDFSGFDCIIGNPPYIRQEHIKDLKPLLEKQYQDFYNSTADIYTYFFALAFHLLKEKGFSAFITSNKYTRAKYGAKLREWLLKKTTIVSYMELNALKVFESAAVDTSIIHFIKQTPSKESEFKYYEPTPNDKDDLKSTPHLLMKQNVLST | failed |
| GDETGVMDSLLEALQSGAAFRRKRGPRQANRKAGCAVTSLLASELTKDDAMAAVPAKVSKNSETFPTILEEAKELVGRAS | failed |
| GDGEEYTFWDPEYAGLQNGLKAVLPNAHNYITQFSANERRYIVYSTSSTQPGTYYFGDRDEKVLFPIAERYSQLSTEQLADTQYLSYEARDKLKIDAYLTVPKGFKAKHLPTIIFPHGGPISYDSNDFDYWAQFFANRGYAVFRMNFRGSAGYGYEFMKAGLKSWGLEMQNDVEDGTRYLINQGISDPQRICIVGASYGGYAALMGAAMTPDLYRCAVSVAGVTDVANLVRSSRRFTNYEVVKEQIGDDFNVLYERSPISKADKITIPVLLLHGDKDRVVKVQHSREMFDELKSRKKNVEYIELENGGHYLSNNDHRLTTFKALDKFLADNLK | failed |
| GGGTRFALVAGTTETAGRAGISAAGADPELMSVTPAADAELVTYGTPVRTDVTPVSPSGCPTPALVTRAAREVLGFDVTVVDGGLAEKTGAPTVSVGARPGKDIAEQDPVSTAHGAFAAARQFGQSLPADELYLGETIPGGTTTALGVLRALGEDGMVSSSLPENPTAQKSEVVAEGLQASSLEPGDAANEPKRAVRRMGDPVLATLAGLTAGAVESDTAVTLAGGSQCVAVAALVRHGGYEGPLGLATTSYVADDESADVRASVDRLDLDLTVTDPGFDRSDHVAMERFVAGEAKEGVGMGGALALADRAGI | failed |
| GKKDKEKIIDDFKVAVVTQPLSENKVQYNMVEEMAKEYEEENKIDKDKDGQTKVKQTIKHVVLPENFTSNIDSAINKIVKLADDKEVQAIVVSTDQAGLLPALQKVKEKRPEIITISAPMGDDKNQLSQFVDVNLGVSAEERGKVLAERSKEMGAKAFIHYASTDDLKDVNIAKRLEMIKETCKNIGLPFVQVNTPNINTEEDKNKVKQFLNEDIEKQVKKYGKDINVFGVNEYMDEVILTKALELKYIVAEQSNPSPIQTYPSVMGLKISEKDAQNYDKINDMISEKAKAFGMSNRLGGYPMPMDAFLPSLAIYLATEMVKQDLTQEDVCDPDYLEAFTELRFGIGSEFTPLTEVLYNYQSVILSQLIY | not failed |
| GLQAEWMQMSSLGTVDAPNFIVGNPWDDKLIFKLLSGLSKPVSSYPNTFEWQCKLPAIKPKTEFQLGSKLVYVHHLLGEGAFAQVYEATQGDLNDAKNKQKFVLKVQKPANPWEFYIGTQLMERLKPSMQHMFMKFYSAHLFQNGSVLVGELYSYGTLLNAINLYKNTPEKVMPQGLVISFAMRMLYMIEQVHDCEIIHGDIKPDNFILGNGFLEQDDEDDLSAGLALIDLGQSIDMKLFPKGTIFTAKCETSGFQCVEMLSNKPWNYQIDYFGVAATVYCMLFGTYMKVKNEGGECKPEGLFRRLPHLDMWNEFFHVMLNIPDCHHLPSLDLLRQKLKKVFQQHYTNKIRALRNRLIVLLLECKRSRK | failed |
| GMFGLVFNTRRATFADEKVREGLSYALDFEWLNRNILGGSFKRTQSYWQNSPLGAYGNAADERELALLGDAAKTMPAELLAGTYAMPTTDGTGADRKVLKLAVDKLKEAGYSIKNGKMSDANGRQLAFEIMTQNPAQERIALAYQRSLNLIGVAMGIRSVDDGQYQARSNSFDYDMIIRSLPSSLSPGMEQLNRWNSLSRDAQGSFNYAGVANPDIDRMIEALLQARSTEDFQAAVRAYDRLLVAGHYIIPLYYIG | failed |
| GMQGYFFNTRRDLFKDIRVREALSYAFDFEWSNKNLFFGQYTRTKSFFDNSELASFGTPSPQEREWLTPFKEQLPEGIFDQPFTLPTTKGDGNIRPQLKRAQQLLKEAGYEIKNKKLIHTTTGQPFVFELLLLSPAMERVALPFKRNLATLGIEMKIRTIDLTQYINRLREFDYDMIVGVIGQSLSPGNEQRYYWHSSSKDERGSKNYAGIDHPAVDRLVEMVVNAKDRRELVDYTRALDRVLLWNHYVIPHFHNR | not failed |
| GNIEAALFGLIALYAQTKVIDSIIYGGDAGSMATIVTGNPDGIAAKVIYELDRTATVLPAKGAYSRKDTSVLLCTVRKSQFVKLKRIVYEEDPDAFVMVTETSEVLGLGFRAFKDSL | failed |
| GNPEIKGRRRQIAQEIAYEDTSSQIKHASAVVSNPKDIAVAIGYMPEKYKAPWIIAMGVNLRAKRIIAEAEKYGVPIMRNVPLAHQLLDEGKELKFIPETTYEAVGEILLYITSLNAQNLENKNINQFDNL | not failed |
| GPPSRRSENRVVVSGLPPSGSWQDLKDHMREAGDVCYADVYRDGTGVVEFVRKEDMTYAVRKLDNTKFRSHEGETAYIRVKVDGPRSPSYGRSRSSGPSSG | not failed |
| GQDTGEDNLAIKGITTLNDLTMVNVSGPGMKGMVGMASRVFGAMSSAGVSIVLITQSSSEYSISFCIEADDKLKAQQVLADAFELELKDGLLEPVDFIDDVSIVTLVGDGMRTSRGVASRFFSSLAEVNVNIVAIAQGSSERAISAVIPEDKISEAIKACHENLFNSKYF | not failed |
| GQDYLDIIGRLLPVLPYNLAIIGADGQVLLMNPPMSRITGMSLRQFVMYPSDWVVQEDKAAVADAVRRYSSGRALSGEISVRLIAKPEETVILTLTGIRHLGESALMISLQESASENEIKQQMAQTTRMQAIGQLAGGVAHDFNNILTAI | failed |
| GQLSIKLWFDKVGHQLIVTILGAKDLPSREDGRPRNPYVKIYFLPDRSDKNKRRTKTVKKTLEPKWNQTFIYSPVHRREFRERMLEITLWDQARVREEESEFLGEILIELETALLDDEPHWYKLQTHD | not failed |
| GRDLLLAVDVSGSMDYRDMRWQDDEISRLELIKKLFGDFIEDRRGDRVGLILFGSQAYLQAPLTFDRHTVRVWLDEAQIGIAGKNTAIGDAIGLAVKRLRQRPAESRVLVLITDGANTGGQIAPQIAAQLAAEQQVKIYTIGIGADPQQGGVPGLFGFNPGLDLDEPTLRGIAESTGGEYFRARSSAELESISATLDRLEPVA | failed |
| GREQMASFESAYVALSRMKQHVQVYTDNREGWIKAIKNSPEKATAHDILEPRNDRAVKTADLLFGRARPLDETAAGRAALQQSGLAQGSSPGKFISPGKKYPQPHVALPAFDKNGKAAGIWLSPLTDRDGRLEAIGGEGRIMGNEDARFVALQNSRNGESLLAGNMGEGVRMARDNPDTGVVVRLAGDDRPWNPGAMTGGRVWAEPAPVAPVPQAGADIILPPEVLAQRAAEEQQRREMEKKAEQTAREMAGEARKAG | failed |
| GRKVGFRKGPRPGAGPREGGFRNDGPRGEGGYRNDGPRGEGGYRNDGPRGEGPRNEGPRGEGYRNDGPRGEGFRGPRFNNGPSNGYENRQDNNRFGEKRRSAQKPLKVDDEAQFPTLC | failed |
| GSAEILVPEVYHGPGKRGTGFYNADQKINRDITIEFIKKMGIRNVLDGFGGTGIRGIRISKETDSAVTISEVSPDSYRLIRDNVERNGSQASVINDSFECVLQHGAYEYVDVDPYGSPVPYLDAALMGVKRNGFLGVTATDQSALTGSVPHKTRIRYDALIKNDTFRHEMGIRLLIGYMAKRAASLGRFIDPLISIWHGHYYRVFVRVRKGFEGAGRMMQNLGYVNKHNLLSGIYQDMDEGPVWKGNLQDNAVAEAVLASAGHKAFNPEENRLLFCDLTDIARARHTSLPDIESVIDALSSSGHAASRTMFSPTGIKTDASCDLVESLMMDTLHRRS | failed |
| GSAQEEQSANEVAVSYSKSLKAAEMDSLQLPVDADGYITIFDGKTFNGWRGYGKDRVPSKWTIEDGCIKFNGSGGGEAQDGDGGDLIFAHKFKNFELEMEWKVSKGGNSGIFYLAQEVTSKDKDGNDVLEPIYISAPEYQVLDNDNHPDAKLGKDNNRQSASLYDMIPAVPQNAKPFGEWNKAKIMVYKGTVVHGQNDENVLEYHLWTKQWTDLLQASKFSQDKWPLAFELLNNCGGENHEGFIGMQDHGDDVWFRNIRVKVLD | not failed |
| GSDSSLFETYNVELVRKDGQSLGIRIVGYVGTSHTGEASGIYVKSVIPGSAAYHNGHIQVNDKIVAVDGVNIQGFANHDVVEVLRNAGQVVHLTLVRRKTSSSTSPLEPPSDRGTV | not failed |
| GSESFDILTDPAQAKEVGTALGIFHQLLSDLSPSQLVDTLPGFHHTPIYLQQYQRALAQNPKLTGSLGPEINHCQRVIKTWLDQCGVLETAKAQGQLPLRLMHGDPKVNNILFDRQSGKAVSVIDLDTTKPGLIHYDLGDCLRSGCNLLGEETENWSAVEFDLDLCRAILEGYLPQCQHFLTAADYDYLCPAIVLISFELGLRFFTDYLNGDRYFKVKYPEHNLIRALVQFQLASHIQSQEDAIRRMIEDIRG | failed |
| GSHMLGGKGRPSGVGGYRILVTTSRRPSPRIRSFVKDLSATIPGAFRFTRGHYSMEELAREAIIRGADRIVVVGERRGNPGIIRVYAVEGPERPDNIVSFIVKGVSLSRERRWGLPSLRGGEVLVARPLDSGVAVEFADAFVIAFHARLKPPEAAGYVEAVIESLDARTVAVTFRYGGAPVGPMLRLGKPAEMVKRGRRV | not failed |
